Patent publication US20140287985A1, “NOVEL USES OF ELAFIN” (Proteo Biotech AG, priority 2010, published 2014)

How the values were obtained:
serum elastase [1] = target: T1, serum elastase (Homo sapiens, UniProt P08246); experiment: Serum elastase activity (photometric assay) in patients undergoing esophagectomy; assay type: in vivo; conditions: 200 mg i.v. over 30 min, beginning 15 min before surgery
T1 construct: from tissue; host or cells: human serum
T1 sequence (P08246 30-267): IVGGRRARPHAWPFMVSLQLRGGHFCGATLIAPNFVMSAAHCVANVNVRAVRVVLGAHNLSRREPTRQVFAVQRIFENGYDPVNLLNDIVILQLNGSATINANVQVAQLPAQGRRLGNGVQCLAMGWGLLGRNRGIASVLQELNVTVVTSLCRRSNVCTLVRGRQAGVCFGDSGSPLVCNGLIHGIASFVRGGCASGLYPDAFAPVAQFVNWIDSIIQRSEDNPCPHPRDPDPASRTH
Method: Blood samples were removed at the intervals indicated and serum was prepared and stored frozen at −20° C. Serum elastase activity was determined using a photometric assay.

rats = experiment: Biocompatibility: 14 days continuous intravenous infusion in rats; assay type: in vivo
Method: Rats were treated with up to 100 mg elafin/kg/day over a period of 14 days by continuous intravenous infusion.

[2] = Plasma Elafin levels (ELISA) after subcutaneous injection in a healthy human volunteer; assay type: in vivo; conditions: 100 mg subcutaneously, n = 1
Method: 100 mg of Elafin physiological saline were injected subcutaneously into the abdomen of a healthy human volunteer. Blood samples were removed at the times indicated in FIG. 9 and plasma prepared and stored at −20° C. The plasma Elafin levels were measured using an ELISA.

Staphylococcus aureus = conditions: cited from earlier work
IL-6 = experiment: Serum IL-6 2 h after esophagectomy (immunoassay); assay type: in vivo, human; conditions: 200 mg i.v.; 2 h postoperatively; versus placebo
Method: Blood samples were taken 2 h after finishing surgery and serum was prepared. The serum level of IL-6 was measured using a routine immunoassay (“Immulite, IL-6”, available from Siemens Medical Solution Diagnostics).

CRP = conditions: 200 mg i.v.; first postoperative day; versus placebo
Method: Patients undergoing esophagectomy for esophagus carcinoma were administered either 200 mg Elafin in 250 mL physiological saline (verum) or 250 mL saline (placebo) i.v. over a period of 30 min beginning 15 min before the commencement of surgery. Serum was prepared from blood samples which were taken on admission and on the day after surgery. The serum levels of CRP were measured using a commercially available ELISA. (CRPL 3, cobas®, available from Roche/Hitachi).

Pseudomanae aeruginosa = conditions: cited from earlier work
human leukocyte elastase = target: T2, human leukocyte elastase (Homo sapiens, UniProt P08246); experiment: Inhibition of leukocyte elastase (Ki); assay type: biochemical
T2 sequence (P08246 30-267): T1 sequence (P08246 30-267)
Excerpt: The invention generally relates to novel uses of polypeptides comprising the sequence depicted in SEQ ID NO: 1 or homologue, derivatives, or fragments of the sequence depicted in SEQ ID NO: 1, for the treatment of medical conditions for which a use of […] has not yet been contemplated. […] Experiments for measuring the activity of leukocyte elastase and its inhibition can be conducted by the method described in European Patent EP 0 402 068. As used herein, the term “homologue” refers to peptides or polypeptides which share a substantial degree of homology on the amino acid level with the sequence of SEQ ID NO: 1 over a certain stretch of its primary structure. In particular, the term “homologue” relates to polypeptides having a sequence (or comprising such sequence) which differs from the sequence depicted in SEQ ID NO: 1 by the substitution (or deletion) of one or more single amino acids. Generally, any amino acid from the sequence depicted in SEQ ID NO: 1 can be deleted or substituted against another amino acid as long as the inhibitory activity of the polypeptide is not lost. Further polypeptides are also included which differ from the sequence of SEQ ID NO: 1 by the insertion of one or more additional amino acids. “One or more” in the above context always refers to 1-50, preferably 1-20, even more preferably 1-10, most preferably 1-5. […]

[3] = Plasma Elafin levels (ELISA) in patients undergoing esophagectomy; assay type: in vivo, human
Method: Blood samples were removed at the intervals indicated and plasma was prepared and stored frozen at −20° C. Plasma Elafin levels were measured using an ELISA.

[4] = Phase I: plasma Elafin concentrations (ELISA) after single intravenous infusion in healthy male volunteers
Method: Each dose was administered to 6 individuals. After Elafin administration blood samples were taken at the indicated times from each volunteer and the plasma prepared and frozen to −20° C. Elafin in the plasma samples was quantified using an ELISA.

IL-8 = experiment: Serum IL-8 6 h after esophagectomy (ELISA); assay type: in vivo, human; conditions: 200 mg i.v.; 6 h postoperatively; versus placebo
Method: Blood samples were taken 6 h after finishing surgery and serum was prepared. The serum level of IL-8 was measured using a commercially available ELISA, (“Immulite, IL-8”, available from Siemens Medical Solution Diagnostics).

[5] = Stability of Elafin to sterilization, quantified by HPLC; assay type: physicochemical
Method: (§1) Lyophilized samples of 300 μg Elafin were sterilized either by heat sterilization or by ethylene oxide sterilization in a suitable standard sterile packing material. After sterilization, samples were dissolved in 300 μl distilled water. Elafin was quantified by HPLC (reverse phase C8-separation medium) and by determination of elastase inhibitory activity.

serum elastase [6] = target: T1, serum elastase; experiment: Serum elastase activity after subcutaneous injection in a healthy human volunteer; assay type: in vivo; conditions: 100 mg subcutaneously; within the first 30 min-4 hours
Method: 100 mg of Elafin in physiological saline were injected subcutaneously into the abdomen of a healthy human volunteer. Blood samples were removed at the times indicated in FIG. 10 and serum prepared and stored at −20° C.

[7] = Period of postoperative intensive care (ICU) after esophagectomy; assay type: in vivo, human; conditions: 200 mg i.v.
Excerpt: After surgery all patients were routinely admitted to the intensive care unit (ICU) at least overnight. Patients were maintained in the ICU for as long as the treating physician considered necessary.

[8] = target: T3, leukocyte elastase activity in the serum (Homo sapiens, UniProt P08246); experiment: Phase I: serum elastase activity after single intravenous infusion in healthy male volunteers; assay type: in vivo
T3 construct: from tissue; host or cells: human serum (ex vivo, after in vivo dosing of Elafin)
T3 sequence (P08246 30-267): T1 sequence (P08246 30-267)
Method: In order to assess the potential pharmacological effect of administered Elafin the inhibition of leukocyte elastase activity in the serum was measured.
The data presented in FIG. 7 were obtained in a Phase I clinical trial.
Within each dosage group the median elastase activity is shown relative to the predose value at t=0 min.

elastase = experiment: Stability of Elafin to sterilization, elastase inhibitory activity; assay type: biochemical
Method: as §1

[9] = rats, up to 100 mg/kg/day, 14 days continuous i.v. infusion

## Elafin: Human anti-protease polypeptide of 57 amino acids, about 6 kDa (SEQ ID NO: 1); reversible inhibitor of neutrophil elastase and proteinase 3 (AQEPVKGPVSTKPGSCPIILIRCAMLNPPNRCLKDTDCPGIKKCCEGSCGMACFVPQ; listed as Homo sapiens)
Serum elastase [1]
  serum elastase activity during the period of surgery: markedly reduced
  serum elastase activity in the course of the subsequent 3 postoperative days: recovered to slightly less than the preoperative level
rats; intravenously to rats
  side effects: without any side effects
rats; [9]
  body weight: Neither food consumption nor body weight was influenced
  clinical signs of haemolysis or cytotoxicity in skin, eyes, mucous membranes, lungs and circulation: no clinical signs of haemolysis or cytotoxicity were observed
  food consumption: Neither food consumption nor body weight was influenced
  mortality: No mortality
[2]
  time of peak plasma concentration after administration: about 60 min
Staphylococcus aureus
  kill Staphylococcus aureus: kill
IL-6
  diminution of postoperative increase in serum IL-6: about 80%
CRP
  diminution of postoperative increase in serum CRP: about 70%
Pseudomanae aeruginosa
  kill Pseudomanae aeruginosa: kill
Human leukocyte elastase
  Ki: ~0.1 nM
[3]; 200 mg i.v. at the beginning of surgery
  half life estimated from plasma levels in esophagectomy patients: at most 2 h
[3]; 200 mg i.v. over 30 min, beginning 15 min before surgery
  period of significant plasma Elafin concentrations after the end of the operation: up to 6 h
[4]; on average
  half-life of elafin in plasma: 1.92 h
[4]; single i.v. infusion, healthy volunteers
  mode of elimination from plasma: eliminated in two first-order processes
IL-8
  diminution of postoperative increase in serum IL-8: about 70%
[5]; Control (room temperature)
  HPLC (Elafin quantified): 108 µg
[5]; Ethylene oxide sterilization
  HPLC (Elafin quantified): 100 µg
[5]; Heat sterilization
  HPLC (Elafin quantified): 0 µg
Serum elastase [6]
  inhibition of serum elastase activity: potent inhibition
[7]; compared with placebo
  period of postoperative ICU care required: significant reduction
[7]; meaning of 'significant reduction' (at least 25% or one day)
  reduction of necessity for intensive care: at least 25%
[8]; 20 mg i.v.
  Median t50% (duration of serum elastase inhibition to a threshold level of 50%): 40 min
[8]; 200 mg i.v.
  Median t50% (duration of serum elastase inhibition to a threshold level of 50%): 480 min
[8]; 400 mg i.v.
  Median t50% (duration of serum elastase inhibition to a threshold level of 50%): 720 min
[8]; doses of 100-400 mg i.v.
  period of pharmacologically relevant elastase inhibition: up to 720 min
[8]; single i.v. infusion over 30 min, various doses
  inhibition of serum elastase: rapid and potent inhibition
elastase; Control (room temperature)
  Inhibitory activity: 100%
elastase; Ethylene oxide sterilization
  Inhibitory activity: 101%
elastase; Heat sterilization
  Inhibitory activity: −19- %
